The source of these data is doi:10.1101/2025.08.21.671500.

Series [1] addresses T1, FOXA1 forkhead domain;FOXA2 forkhead domain, Twin-Strep-tagged (human?;human?, UniProt P55317;Q9Y261 169-260;159-252, |).
T1 sequence 1: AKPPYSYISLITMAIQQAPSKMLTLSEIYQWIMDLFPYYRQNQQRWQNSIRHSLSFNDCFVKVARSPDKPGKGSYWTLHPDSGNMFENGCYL
T1 sequence 2: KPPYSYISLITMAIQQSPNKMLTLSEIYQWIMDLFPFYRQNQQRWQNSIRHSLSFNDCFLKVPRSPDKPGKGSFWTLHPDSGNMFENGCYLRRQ
Put plainly: EMSA. On the technique in general: A gel shift assay detects complexes by their altered migration in electrophoresis.

Series [2] has as its target T2, FOXA2 forkhead domain (UniProt Q9Y261 159-252).
T2 sequence: T1 sequence 2
The experiment in a line: EMSA.

Series [3] has as its target T3, FOXA1 forkhead domain (UniProt P55317 169-260).
T3 sequence: T1 sequence 1
The experiment in a line: EMSA.

The target of series [4] is T2, FOXA2 forkhead domain. Put plainly: BLI.
For series [5], the target named is T3, FOXA1 forkhead domain. The experiment in a line: BLI. On the technique in general: Biolayer interferometry detects binding as a change in optical thickness at a sensor tip.

B1: PAL (extended palindromic motif) (dsDNA)
DNA 1: CCGCCGTAAGTAAATATTTACTTAGCCGCC
DNA 2: GGCGGCTAAGTAAATATTTACTTACGGCGG
As for B1, the binding result in series [1], in series [2] and in series [3] was “binds” each time.

B2: BLI 40-mer (dsDNA)
DNA 1: GTGTCTCCTGCTCTGTCAGCAGGGCACTGTACTTGCTGAT
DNA 2: ATCAGCAAGTACAGTGCCCTGCTGACAGAGCAGGAGACAC
As for B2, the binding result in series [4] and in series [5] was “binds” throughout.

B3: 2C (two canonical motifs separated by 3 nt) (dsDNA)
DNA 1: CCGCCGTATTTACTGAGTAAATAGCCGCC
DNA 2: GGCGGCTATTTACTCAGTAAATACGGCGG
As to B3, the binding result in series [1], in series [2] and in series [3] was “binds” in each case.

B4: C (canonical FOXA motif) (dsDNA)
DNA 1: CCGCCGCCGTGTTTACTTTGCCGCCGCC
DNA 2: GGCGGCGGCAAAGTAAACACGGCGGCGG
B4: the binding result in series [2] is reported as “binds”.
